The data set deals with the molecule itself. Briefly: SEC-MALS. In general terms: In gel filtration, larger molecules generally elute earlier.

Experimental findings from publication doi:10.1101/2024.11.05.621662 (bioRxiv, 2024) are described below.

B1: TFG PB1 domain (amino acids 1-96), wild type (domain or fragment, human, UniProt Q92734 1-96, looked up)
chain: MNGQLDLSGKLIIKAQLGEDIRRIPIHNEDITYDELVLMMQRVFRGKLLSNDEVTIKYKDEDGDLITIFDSSDLSFAIQCSRILKLTLFVNGQPRP
In general, stoichiometry N refers to a count of units in the complex or per binding partner. With B1, the “stoichiometry N” value is 8.
